As usually defined, the stoichiometry N is the number of molecules, sites or subunits per partner or assembly.

Test [1] has as its target AIP56^286–497 (C-terminal domain of AIP56, apoptosis-inducing protein of 56 kDa) (Photobacterium damselae piscicida). The experiment in a line: reducing and non-reducing SDS-PAGE; reconstituted AIP56: AIP56^1–285 and AIP56^286–497 mixed in equimolar amounts in 8 M urea, 1 mM DTT, refolded by extensive dialysis against sbPBS; run with and without DTT (Figure S6A).
For test [2] the target is unchanged. The test is described as follows: reducing and non-reducing SDS-PAGE; purified AIP56^1–285 and AIP56^286–497, each alone, run with and without DTT (Figure S5A); dimers held by a disulphide formed on oxidation.
Test [3] concerns the target AIP56^1–285 (N-terminal domain of AIP56, apoptosis-inducing protein of 56 kDa) (Photobacterium damselae piscicida). The experiment in a line: reducing and non-reducing SDS-PAGE; reconstituted AIP56: AIP56^1–285 and AIP56^286–497 mixed in equimolar amounts in 8 M urea, 1 mM DTT, refolded by extensive dialysis against sbPBS; run with and without DTT (Figure S6A).
Test [4] shares this target. The test is described as follows: reducing and non-reducing SDS-PAGE; purified AIP56^1–285 and AIP56^286–497, each alone, run with and without DTT (Figure S5A); dimers held by a disulphide formed on oxidation.

Turning to “AIP56^286–497 (C-terminal domain of AIP56, apoptosis-inducing protein of 56 kDa) (domain or fragment)”, the stoichiometry N in test [1] and in test [2] was 2 throughout.

Consider “AIP56^1–285 (N-terminal domain of AIP56, apoptosis-inducing protein of 56 kDa) (domain or fragment)”, for which the stoichiometry N in test [3] and in test [4] was 2 each time.

Values taken from PMC3585134.
